Experimental data reported in patent publication US20240409635A1.

Target: keyhole limpet haemocyanin
Assay: ELISA, KLH coated, 100 nM antibody

Substance	absorbance ratio to PBS blank
Adalimumab (antibody)	1.03
Ofatumumab (antibody)	1.15
